For this experiment, the target named is Chicken skeletal muscle actin, assembled into filaments (F-actin) (chicken) (UniProt P68139). Kind of experiment: TIRF microscopy of labeled protein on actin filaments; four-color TIRFM; 1.5 μM Mg-ATP actin (15% Alexa 488-labeled), 50 nM Fim1 (Alexa 405-labeled), 2.5 μM Cdc8 (TMR-labeled), without or with 500 nM Ain1 (Cy5-labeled); fluorescence on two-filament bundles; room temperature.

On to “acetylation mimic tropomyosin AlaSer-Cdc8, fluorescently labeled (TMR or Cy5) (natural protein)”, for which the fold of Cdc8 on F-actin bundles with Fim1 and Ain1 against with Fim1 alone is greater than 100 fold.

The record behind these values is publication PMC6557641.
